Reference: patent US20130005646A1 (Novo Nordisk, published 2013)
Starred links: 1 amine or outer side, 2 acyl side, 3 side chain; linkers in the order of their positions; H or OH if unused. Positions of bridges follow the written chain, without caps; N, C: chain ends. *: point of attachment. C20 diacid = O=C(O)CCCCCCCCCCCCCCCCCCC(=O)*; γGlu = O=C(O)[C@H](CCC(=O)[*:2])N[*:1]

T1: human amylin 3(a) receptor (human calcitonin receptor + RAMP-3) (human, UniProt P30988 25-474; O60896 24-148)
T1 sequence (looked up) 1: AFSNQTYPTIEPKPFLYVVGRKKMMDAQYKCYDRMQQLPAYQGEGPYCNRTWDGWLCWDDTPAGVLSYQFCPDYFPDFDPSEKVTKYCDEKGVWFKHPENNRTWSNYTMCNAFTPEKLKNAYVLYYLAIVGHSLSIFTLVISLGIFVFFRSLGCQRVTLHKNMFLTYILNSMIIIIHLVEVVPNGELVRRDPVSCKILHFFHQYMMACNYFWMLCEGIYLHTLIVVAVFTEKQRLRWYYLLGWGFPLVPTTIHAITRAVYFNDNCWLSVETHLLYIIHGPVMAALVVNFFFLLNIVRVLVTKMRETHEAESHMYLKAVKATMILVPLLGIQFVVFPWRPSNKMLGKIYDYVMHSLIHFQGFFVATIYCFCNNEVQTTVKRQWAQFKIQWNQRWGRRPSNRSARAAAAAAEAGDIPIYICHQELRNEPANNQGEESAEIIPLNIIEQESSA
T1 sequence (looked up) 2: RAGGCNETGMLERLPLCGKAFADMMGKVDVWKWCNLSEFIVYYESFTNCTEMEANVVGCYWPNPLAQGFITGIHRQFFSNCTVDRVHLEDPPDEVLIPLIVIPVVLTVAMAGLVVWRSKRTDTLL

T2: human calcitonin (a) receptor (human, UniProt P30988 25-474)
T2 sequence (looked up): T1 sequence (looked up) 1

T3: rat amylin 3(a) receptor (rat calcitonin(a) receptor + rat RAMP3) (rat, UniProt P32214 25-516; Q9JJ73 23-147)
T3 sequence (looked up) 1: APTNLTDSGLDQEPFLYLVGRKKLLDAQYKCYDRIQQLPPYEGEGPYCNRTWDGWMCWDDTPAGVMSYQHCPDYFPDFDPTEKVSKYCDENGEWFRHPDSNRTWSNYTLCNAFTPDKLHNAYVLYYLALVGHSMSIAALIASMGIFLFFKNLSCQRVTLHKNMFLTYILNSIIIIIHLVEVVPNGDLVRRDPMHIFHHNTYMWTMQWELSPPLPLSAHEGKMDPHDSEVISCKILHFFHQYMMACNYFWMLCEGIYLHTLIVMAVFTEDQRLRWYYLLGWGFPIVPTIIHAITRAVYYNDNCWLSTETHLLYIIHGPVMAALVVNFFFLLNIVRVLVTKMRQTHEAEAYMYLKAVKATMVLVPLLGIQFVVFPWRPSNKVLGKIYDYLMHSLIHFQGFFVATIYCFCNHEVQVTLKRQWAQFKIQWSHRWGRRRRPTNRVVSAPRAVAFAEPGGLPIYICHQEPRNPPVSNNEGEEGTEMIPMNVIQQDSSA
T3 sequence (looked up) 2: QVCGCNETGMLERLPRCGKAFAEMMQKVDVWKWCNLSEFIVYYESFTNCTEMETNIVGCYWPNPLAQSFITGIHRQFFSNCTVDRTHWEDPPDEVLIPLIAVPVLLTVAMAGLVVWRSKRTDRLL

T4: rat calcitonin (a) receptor (rat, UniProt P32214 25-516)
T4 sequence (looked up): T3 sequence (looked up) 1

B1: N-alpha-[(S)-4-Carboxy-4-(19-carboxynonadecanoylamino)butyryl]-[Arg1,Glu14,His17,Pro37]-pramlintide (peptide)
peptide: {C20 diacid-γGlu}-RCNTATCATQRLAEFLHHSSNNFGPILPPTNVGSNTP-NH2
modifications: disulfide 2-7
SMILES: CC[C@H](C)[C@H](NC(=O)[C@@H]1CCCN1C(=O)CNC(=O)[C@H](Cc1ccccc1)NC(=O)[C@H](CC(N)=O)NC(=O)[C@H](CC(N)=O)NC(=O)[C@H](CO)NC(=O)[C@H](CO)NC(=O)[C@H](Cc1c[nH]cn1)NC(=O)[C@H](Cc1c[nH]cn1)NC(=O)[C@H](CC(C)C)NC(=O)[C@H](Cc1ccccc1)NC(=O)[C@H](CCC(=O)O)NC(=O)[C@H](C)NC(=O)[C@H](CC(C)C)NC(=O)[C@H](CCCNC(=N)N)NC(=O)[C@H](CCC(N)=O)NC(=O)[C@@H](NC(=O)[C@H](C)NC(=O)[C@@H]1CSSC[C@H](NC(=O)[C@H](CCCNC(=N)N)NC(=O)CC[C@H](NC(=O)CCCCCCCCCCCCCCCCCCC(=O)O)C(=O)O)C(=O)N[C@@H](CC(N)=O)C(=O)N[C@@H]([C@@H](C)O)C(=O)N[C@@H](C)C(=O)N[C@@H]([C@@H](C)O)C(=O)N1)[C@@H](C)O)C(=O)N[C@@H](CC(C)C)C(=O)N1CCC[C@H]1C(=O)N1CCC[C@H]1C(=O)N[C@H](C(=O)N[C@@H](CC(N)=O)C(=O)N[C@H](C(=O)NCC(=O)N[C@@H](CO)C(=O)N[C@@H](CC(N)=O)C(=O)N[C@H](C(=O)N1CCC[C@H]1C(N)=O)[C@@H](C)O)C(C)C)[C@@H](C)O
B2: N-alpha-[(S)-4-Carboxy-4-(19-carboxynonadecanoylamino)butyryl]-[Glu14,His35]-pramlintide (peptide)
peptide: {C20 diacid-γGlu}-KCNTATCATQRLAEFLVHSSNNFGPILPPTNVGSHTY-NH2
modifications: disulfide 2-7
SMILES: CC[C@H](C)[C@H](NC(=O)[C@@H]1CCCN1C(=O)CNC(=O)[C@H](Cc1ccccc1)NC(=O)[C@H](CC(N)=O)NC(=O)[C@H](CC(N)=O)NC(=O)[C@H](CO)NC(=O)[C@H](CO)NC(=O)[C@H](Cc1c[nH]cn1)NC(=O)[C@@H](NC(=O)[C@H](CC(C)C)NC(=O)[C@H](Cc1ccccc1)NC(=O)[C@H](CCC(=O)O)NC(=O)[C@H](C)NC(=O)[C@H](CC(C)C)NC(=O)[C@H](CCCNC(=N)N)NC(=O)[C@H](CCC(N)=O)NC(=O)[C@@H](NC(=O)[C@H](C)NC(=O)[C@@H]1CSSC[C@H](NC(=O)[C@H](CCCCN)NC(=O)CC[C@H](NC(=O)CCCCCCCCCCCCCCCCCCC(=O)O)C(=O)O)C(=O)N[C@@H](CC(N)=O)C(=O)N[C@@H]([C@@H](C)O)C(=O)N[C@@H](C)C(=O)N[C@@H]([C@@H](C)O)C(=O)N1)[C@@H](C)O)C(C)C)C(=O)N[C@@H](CC(C)C)C(=O)N1CCC[C@H]1C(=O)N1CCC[C@H]1C(=O)N[C@H](C(=O)N[C@@H](CC(N)=O)C(=O)N[C@H](C(=O)NCC(=O)N[C@@H](CO)C(=O)N[C@@H](Cc1c[nH]cn1)C(=O)N[C@H](C(=O)N[C@@H](Cc1ccc(O)cc1)C(N)=O)[C@@H](C)O)C(C)C)[C@@H](C)O

Columns and labels:
Assay in all cases: cell-based or functional assay
[1] = molecular target: T1, human amylin 3(a) receptor (human …)
[2] = molecular target: T2, human calcitonin (a) receptor
[3] = molecular target: T3, rat amylin 3(a) receptor (rat …)
[4] = molecular target: T4, rat calcitonin (a) receptor

| Binder | Amylin receptor human EC50 [1] [nM] | CTa receptor human EC50 [2] [nM] | Amylin receptor rat EC50 [3] [nM] | CTa receptor rat EC50 [4] [nM] |
| --- | --- | --- | --- | --- |
| B1 | 0.043 | 0.055 | 0.088 | 0.058 |
| B2 | 0.136 | 0.18 | 0.138 | 0.215 |
